Data: patent US20050113284A1, “Drug for regenerating tissue and vessel and method therefor” (priority 2001, published 2005)

T1: MERMUC bait protein (Homo sapiens, UniProt Q8N307)
T1 construct: Bait-2 corresponds to a 123 amino acid portion of the C-terminus (bait-2); expressed in transfected cells; host or cells: yeast AH109 strain (pGBKT7 bait vector)
T1 sequence (Q8N307 587-709): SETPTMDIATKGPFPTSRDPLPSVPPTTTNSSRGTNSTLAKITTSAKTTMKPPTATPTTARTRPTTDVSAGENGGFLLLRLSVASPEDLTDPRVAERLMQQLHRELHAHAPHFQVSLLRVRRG


Target: T1, MERMUC bait protein
Assay: Yeast two-hybrid binding of c-Met prey deletion proteins to MERMUC bait-2
Settings: yeast growth on SD/-Leu,-Trp,-His and SD/-Leu,-Trp,-Ade; human MERMUC bait-2
Experimental: The present invention was performed using the reported yeast two-hybrid system (Proc. Natl. Acad. Sci. USA., 1991, Vol. 88, p.9578-9582) based on conventional method and the experimental protocols appended to the reagents.
PCR was performed using DNA (clone No. 3-309) corresponding to the 91 amino acids (amino acids 993-1083 of SEQ ID NO: 4) of the C-terminal region of the human HGF receptor c-Met β chain that was identified in the previous Example to have the binding ability to the cytoplasmic region of human MERMUC as a template. Seven DNA fragments shown below corresponding to the C-terminal region of the c-Met β chain having various lengths, wherein various length of N-terminal or C-terminal amino acids are deleted from said 91 amino acids were prepared via a conventional method by PCR: • A. DNA corresponding to a region (amino acids 1003-1083 of SEQ ID NO: 4) that lacks the 10 N-terminal amino acids of the 91 amino acids of the C-terminal human c-Met β chain; • B. DNA corresponding to a region (amino acids 1013-1083 of SEQ ID NO: 4) that lacks the 20 N-terminal amino acids of the 91 amino acids of the C-terminal human c-Met β chain; • C. DNA corresponding to a region (amino acids 1023-1083 of SEQ ID NO: 4) that lacks the 30 N-terminal amino acids of the 91 amino acids of the C-terminal human c-Met β chain; • D. DNA corresponding to a region (amino acids 993-1073 of SEQ ID NO: 4) that lacks the C-terminal 10 amino acids of the 91 amino acids of the C-terminal human c-Met β chain; • E. DNA corresponding to a region (amino acids 993-1063 of SEQ ID NO: 4) that lacks the 20 C-terminal amino acids of the 91 amino acids of the C-terminal human c-Met β chain; • F. DNA corresponding to a region (amino acids 993-1053 of SEQ ID NO: 4) that lacks the 30 C-terminal amino acids of the 91 amino acids of the C-terminal human c-Met β chain; and • G. DNA corresponding to a region (amino acids 993-1043 of SEQ ID NO: 4) that lacks the 40 C-terminal amino acids of the 91 amino acids of the C-terminal human c-Met β chain.
Furthermore, the forward and reverse primers used for the PCR were designed to contain an EcoRI site and SalI site at their 5′ end, respectively. Each of the DNA fragments prepared by PCR were inserted into the EcoRI/SalI site of pADKT7 vector (a vector for a prey protein that contains a tryptophan biosynthesis gene as a marker; CLONTECH) in frame with GAL4-AD to prepare prey vectors wherein each of the 7 DNAs described above is inserted.
Each of the 7 prey vectors was cointroduced into yeast AH109 strain with the human MERMUC bait-2 vector prepared in Example 1.
The binding activity between the c-Met prey proteins derived from the 7 DNA fragments and the MERMUC bait protein was analyzed by the yeast two-hybrid system described in Example 1. Specifically, the binding activity was evaluated based on the growth of yeast transformed with the vector on 2 kinds of yeast minimum media, i.e., (1) SD/-Leu, -Trp, -His media and (2) SD/-Leu, -Trp, -Ade media.

Row | binding activity with MERMUC bait protein | Molecule
1 | + (bound) (+ (bound)) | prey DNA A: c-Met prey protein, amino acids 1003-1083 of SEQ ID NO: 4 (protein, listed as Homo sapiens) DPLYEVMLKCWHPKAEMRPSFSELVSRISAIFSTFIGEHYVHVNATYVNVKCVAPYPSLLSSEDNADDEVDTRPASFWETS
2 | + (bound) (+ (bound)) | prey DNA E: c-Met prey protein, amino acids 993-1063 of SEQ ID NO: 4 (protein, listed as Homo sapiens) RRLLQPEYCPDPLYEVMLKCWHPKAEMRPSFSELVSRISAIFSTFIGEHYVHVNATYVNVKCVAPYPSLLS
3 | − (no binding) | prey DNA C: c-Met prey protein, amino acids 1023-1083 of SEQ ID NO: 4 (protein, listed as Homo sapiens) FSELVSRISAIFSTFIGEHYVHVNATYVNVKCVAPYPSLLSSEDNADDEVDTRPASFWETS
4 | + (bound) (+ (bound)) | prey DNA F: c-Met prey protein, amino acids 993-1053 of SEQ ID NO: 4 (protein, listed as Homo sapiens) RRLLQPEYCPDPLYEVMLKCWHPKAEMRPSFSELVSRISAIFSTFIGEHYVHVNATYVNVK
5 | + (bound) (+ (bound)) | prey DNA B: c-Met prey protein, amino acids 1013-1083 of SEQ ID NO: 4 (protein, listed as Homo sapiens) WHPKAEMRPSFSELVSRISAIFSTFIGEHYVHVNATYVNVKCVAPYPSLLSSEDNADDEVDTRPASFWETS
6 | + (bound) (+ (bound)) | prey DNA D: c-Met prey protein, amino acids 993-1073 of SEQ ID NO: 4 (protein, listed as Homo sapiens) RRLLQPEYCPDPLYEVMLKCWHPKAEMRPSFSELVSRISAIFSTFIGEHYVHVNATYVNVKCVAPYPSLLSSEDNADDEVD
